PMC8102515
Several values for one entry are separate records, joined by “and”; a condition that tells them apart may be missing. Identical values can stand only once.

T1: human peroxiredoxin 6 (human), P30041
T1 chain: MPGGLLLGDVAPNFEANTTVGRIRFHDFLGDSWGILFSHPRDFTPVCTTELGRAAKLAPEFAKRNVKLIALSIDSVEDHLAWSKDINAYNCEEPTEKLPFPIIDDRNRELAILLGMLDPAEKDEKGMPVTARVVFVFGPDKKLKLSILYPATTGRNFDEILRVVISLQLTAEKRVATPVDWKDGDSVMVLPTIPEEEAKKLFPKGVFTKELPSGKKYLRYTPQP


Tests used:
[1] = biological target: T1, human peroxiredoxin 6 (human), P30041; assay: dynamic light scattering; hPrdx6 1.0 mg/ml, pH 10.0; fixed angle of 90°, laser 689 nm; conditions: remark: other sources report otherwise
[2] = biological target: T1, human peroxiredoxin 6 (human), P30041; assay: dynamic light scattering; hPrdx6 1.0 mg/ml, pH 4.0; fixed angle of 90°, laser 689 nm; oligomer told from the hydrodynamic diameter; conditions: remark: other sources report otherwise
[3] = biological target: T1, human peroxiredoxin 6 (human), P30041; assay: dynamic light scattering; hPrdx6 1.0 mg/ml, pH 5.0; fixed angle of 90°, laser 689 nm; two peaks; conditions: remark: other sources report otherwise
[4] = biological target: T1, human peroxiredoxin 6 (human), P30041; assay: dynamic light scattering; hPrdx6 1.0 mg/ml, pH 2.0; fixed angle of 90°, laser 689 nm; two peaks; conditions: remark: other sources report otherwise
[5] = biological target: T1, human peroxiredoxin 6 (human), P30041; assay: dynamic light scattering; hPrdx6 1.0 mg/ml, pH 7.0; fixed angle of 90°, laser 689 nm; oligomer told from the hydrodynamic diameter; conditions: remark: other sources report otherwise
[6] = biological target: T1, human peroxiredoxin 6 (human), P30041; assay: dynamic light scattering; hPrdx6 1.0 mg/ml, pH 3.0; fixed angle of 90°, laser 689 nm; conditions: remark: other sources report otherwise
[7] = biological target: T1, human peroxiredoxin 6 (human), P30041; assay: dynamic light scattering; hPrdx6 1.0 mg/ml, pH 6.0; fixed angle of 90°, laser 689 nm; conditions: remark: other sources report otherwise
[8] = biological target: T1, human peroxiredoxin 6 (human), P30041; assay: dynamic light scattering; hPrdx6 1.0 mg/ml, pH 9.0; fixed angle of 90°, laser 689 nm; conditions: remark: other sources report otherwise
[9] = biological target: T1, human peroxiredoxin 6 (human), P30041; assay: dynamic light scattering; hPrdx6 1.0 mg/ml, pH 8.0; fixed angle of 90°, laser 689 nm; conditions: remark: other sources report otherwise
[10] = biological target: P30041; assay: dynamic light scattering; hPrdx6 1.0 mg/ml, pH 2.0; fixed angle of 90°, laser 689 nm; two peaks; conditions: other: dynamic light scattering

stoichiometry N [1]	volume fraction of the dimer peak (Hd 6.3 nm) [1] [%]	stoichiometry N [2]	volume fraction of the tetramer peak (Hd 13.75 nm) [2] [%]	stoichiometry N [3]	volume fraction of the dimer peak (Hd 6.39 nm) [3] [%]	volume fraction of the tetramer peak (Hd 13.44 nm) [3] [%]	stoichiometry N [4]	volume fraction of the larger peak (Hd 14.17 nm; the text's dimer) [4] [%]	stoichiometry N [5]	volume fraction of the dimer peak (Hd 7.1 nm) [5] [%]	stoichiometry N [6]	volume fraction of the tetramer peak (Hd 12.2 nm) [6] [%]	stoichiometry N [7]	volume fraction of the dimer peak (Hd 8.12 nm) [7] [%]	stoichiometry N [8]	volume fraction of the dimer peak (Hd 6.4 nm) [8] [%]	stoichiometry N [9]	volume fraction of the dimer peak (Hd 6.31 nm) [9] [%]	Binder	volume fraction of the monomer peak (Hd 3.7 nm) [10] [%]
2	100	4	99.6	2 and 4	29.8	70.2	2	30.2	2	100	4	99.2	2	100	2	100	2	100	human peroxiredoxin 6, P30041 1-224 (enzyme) MPGGLLLGDVAPNFEANTTVGRIRFHDFLGDSWGILFSHPRDFTPVCTTELGRAAKLAPEFAKRNVKLIALSIDSVEDHLAWSKDINAYNCEEPTEKLPFPIIDDRNRELAILLGMLDPAEKDEKGMPVTARVVFVFGPDKKLKLSILYPATTGRNFDEILRVVISLQLTAEKRVATPVDWKDGDSVMVLPTIPEEEAKKLFPKGVFTKELPSGKKYLRYTPQP	
																			human peroxiredoxin 6 (protein) MPGGLLLGDVAPNFEANTTVGRIRFHDFLGDSWGILFSHPRDFTPVCTTELGRAAKLAPEFAKRNVKLIALSIDSVEDHLAWSKDINAYNCEEPTEKLPFPIIDDRNRELAILLGMLDPAEKDEKGMPVTARVVFVFGPDKKLKLSILYPATTGRNFDEILRVVISLQLTAEKRVATPVDWKDGDSVMVLPTIPEEEAKKLFPKGVFTKELPSGKKYLRYTPQP	69.8
